Measured values taken from PMC11005340.

What was measured:
[1] = biological target: HIV-1AD8 Env N332L (HIV-1 (strain AD8))
[2] = biological target: HIV-1AD8 Env N332Y (HIV-1 (strain AD8))
[3] = biological target: HIV-1AD8 Env N332E (HIV-1 (strain AD8))

Measured: neutralisation of pseudovirus infection of Cf2-Th/CD4+CCR5+ cells, IC50 (one of the three changes with the highest resistance to PGT121)

PGT121 (antibody)
< 1 µg/mL: all assays above
